According to patent publication US20240010695A1:

Experiments:
Test in all cases: polyreactivity ELISA, antigen coated, 10 ug/mL binder
insulin = target: insulin
[1] = target: keyhole limpet hemocyanin
[2] = target: human serum albumin (human) (UniProt P02768)

An absorbance at 450 nm normalized against the no-antigen control (insulin) of 21.4, an absorbance at 450 nm normalized against the no-antigen control [1] of 38.8 and an absorbance at 450 nm normalized against the no-antigen control [2] of 16.6 were found for Bococizumab (antibody) in this work.
